The values below come from patent EP2605788B1.

Some targets named below: CD20 (human) (UniProt P11836); CD74 (human) (UniProt P04233); CD22 (human) (UniProt P20273).
What all share (experiment): cell-based or functional assay

Chain of CD74 (human) (P04233 whole entry): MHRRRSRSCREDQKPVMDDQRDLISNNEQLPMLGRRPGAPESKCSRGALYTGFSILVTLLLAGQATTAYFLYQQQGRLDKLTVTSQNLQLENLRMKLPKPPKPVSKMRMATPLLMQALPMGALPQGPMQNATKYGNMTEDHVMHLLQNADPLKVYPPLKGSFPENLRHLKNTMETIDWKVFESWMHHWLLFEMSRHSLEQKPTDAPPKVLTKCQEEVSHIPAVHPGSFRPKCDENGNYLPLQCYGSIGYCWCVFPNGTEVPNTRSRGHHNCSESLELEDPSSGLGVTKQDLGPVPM
Chain of CD20 (human) (P11836 whole entry): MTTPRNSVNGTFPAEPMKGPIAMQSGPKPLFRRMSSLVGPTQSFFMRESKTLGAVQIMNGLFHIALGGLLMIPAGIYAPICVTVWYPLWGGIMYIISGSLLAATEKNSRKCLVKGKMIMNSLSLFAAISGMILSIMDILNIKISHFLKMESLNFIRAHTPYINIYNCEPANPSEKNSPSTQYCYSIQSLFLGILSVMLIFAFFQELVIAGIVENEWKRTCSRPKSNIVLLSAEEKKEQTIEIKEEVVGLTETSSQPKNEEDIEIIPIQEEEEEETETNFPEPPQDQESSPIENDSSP

In the assay with CD20 (human), 20-(74)-(74) (bispecific antibody) showed a homotypic adhesion (%), JeKo-1, 10 nM, 2 h of 90% and a homotypic adhesion (%), JeKo-1, 10 nM, 24 h greater than 95%. Besides, in the assay with CD74 (human), the EC50, MTS assay, CLL (WAC, MEC-1), ALL (REH-1, MN60) and MM (CAG, RPMI8226, KMS11, KMS12-BM, KMS12-PE) lines was greater than 100 nM; the homotypic adhesion (%), JeKo-1, 10 nM, 2 h was determined as 90%; the homotypic adhesion (%), JeKo-1, 10 nM, 24 h was greater than 95%.
In the assay with CD20 (human), 20-Rap returned an EC50, in vitro cytotoxicity, Daudi and Ramos of 0.1 nM; an EC50, in vitro cytotoxicity, Jeko-1 of 0.02 nM; a fold more potent than 22-Rap, in vitro cytotoxicity, Jeko-1 of 25 fold; an in vitro cytotoxicity, NHL cell lines greater than 1 nM.
Substance 22-Rap returned an in vitro cytotoxicity, NHL cell lines in the assay with CD22 (human) greater than 1 nM.
In the assay with CD20 (human), 74-(20)-(20) (bispecific antibody) displayed a homotypic adhesion (%), JeKo-1, 10 nM, 2 h of 90% and a homotypic adhesion (%), JeKo-1, 10 nM, 24 h greater than 95%. In the assay with CD74 (human), this substance had an EC50, MTS assay, CLL (WAC, MEC-1), ALL (REH-1, MN60) and MM (CAG, RPMI8226, KMS11, KMS12-BM, KMS12-PE) lines greater than 100 nM; a homotypic adhesion (%), JeKo-1, 10 nM, 2 h of 90%; a homotypic adhesion (%), JeKo-1, 10 nM, 24 h greater than 95%.
